Laboratory results published in the DeepSol protein solubility set.

assay: soluble on expression in E. coli; label from the status in PepcDB or PDB records

Soluble on expression in E. coli, not soluble:
MGSDKIHHHHHHMDVLKEVLSLDQDKFDQLKETSRDKTNETDDPFENYLKDCKFKAPSNKDQSPFAKLKSLQETHSNNEAAINIIIPQLIDYLTEFTNRLSNYTQDLDFIKKKSNELQSLLEYNSTKLAHISPMVNDLMIPPELIDDIIKGKINESWQDNITFIADKEEIYNKYRSNNLDQDNKDAENSAMLAPKDFDKLCQLLDILKNVILERSKRLIISKIKTLRSHNPVPSQRIQNKLLKVQKIFPFIRDNNLSLALELRQAYCYTMKWYYREYFSRYIRSLTILQFQQIDSQFALGNGLSTTSVSGFNNSPSLFFSNYLTTSASNAFYNKLPVTDEKIDKYFQIKKRLNILTQEDNTVMVSQIAENNTTKNYIEIGFKNLNLAILDNCTVEYHFLKDFFAMNGDNFEEINGLLEQIFQPTFDEATTYTQQLIQYNYDIFGVLISIRVANQLQFESERRGIPSMFDSFLNGQLIQLWPRFQQLVDFQCESLRKAAITTNVAKYAGNSSTSNSSPLTSPHELTVQFGKFLSSFLTLAITHKQSIDERSEPLYNSIIRLRNDFETVMTKCSKKTKSPERFLATNYMYLYNNLQQLHLHLNINDSDAQNYNFDSAENVGTKVANDDDNDSSVPLIIRETENHFKTLVEAFTRN, MGSDKIHHHHHHMDYKELLEVLRKDLNFKKVDLYQEKSNKTRYREIELGEKSPTIEELISFTDTLGIRLSEFLYRGDITPLAASYYGKRKIEVASLINNFPELEKQFPEIYKDRFKNLQCYTLFTLCLIISKSLNNSLYTFKNKDIRELKNFYKNREVILGADYAILSHLYMAVPEYSNELDFLTEKLFPINQSYGDIHDHAVQLCIKNAVTVFLEKKDFEKADYFLEQFDIVRKVPSFILDGTINLEMIYLKHLRNFLKKRNMEEYLKAVNIVNLFSQLGENDTYKELVKEVTEIARKENFEVPSSLNIIADTFEGVGYLKSDK, MGSDKIHHHHHHMEDFWRIRATDTAWKGVLHLASPRRYSRGEVIIRAGEMVDSLFYLESGEVRMIRTSMEGSEKILMYIEEGTLFGETPFFTGQPILSTFVCSRPAVIWRFSRHSVYADLLPNHPEIVSSLLHTFAAKVSTLSNQSASLGLQNVAERLCTFLYVTSGESISGAHGAELKLSMKMRDIANLLGVHRTTLYKAIRDLEKEGVLENFTRDSVRIADVTRFLEMVHK, MGSDKIHHHHHHMEEVVKRLAEIRAMDARGEGGRLFTYLYETGDPGVKEVSLRAFEMFLDTNALDPTVFKSALFFERELVSFASSLAGGVEGVVGTVTYGGTESIILAAMAAREWYRSLGGSRTPGIVAPQTVHPSVRKAARYLGMRLSIAPVDPGSKRVDIDSLVSLVDDRTAMVVVSAPNYPYGTVDDVRSVAEALSSQRVWLHVDACVGGFILPFMRELGLYSGAFAFDVEGVYSVSMDLHKYGYSPKGASVLLFRDGSLKKHSIFADLRWPGYPFINTTVLSSRSVAPLAAAWAVTNYLGRRGYLELARKAVEARDEIMRGLESIGFRSLAPIESTILSVALDDPADTLRFHANMSRRGWILGLQPGVEGLAPPNIHLTISPIHKLVSPQFLGDARASSSEPLPKELEEAWRLLESRGPLELAGMIGRTQYDQVIIAWILSSIPPDLAEDLARELTVEVYRG, MGSDKIHHHHHHMEEYFNGLLKEVDQRMATTAPGMDGKEVIGVCREMVSYLKGKNRELKEYALAHPFAGDAKEILYFKYYKPALTGRLLYYYRVYQIESGCPACLRVAEPYYRKAMERAERMMERYLPFYQYYHSGATYRDSYYFLRAKGELSPESGSFVLDEEAEFSTGYDILAARLISVEMLLVHLSRRMERAAQGTETEAVPEKEHRWTNTKVAAILLVYGIHVTGSVDEGNAEIGELAALFEKHFHVDLGNVYHAFGRLRGQQNPTAFLDEMKERLLKKMRDMDSR, MGSDKIHHHHHHMEFLRNTWYAAGWSQDLAAGAMLGRTMLNEQLVLFRADDGTVSALSDICPHRFAPLHLGKIVDGCRIQCAYHALEFDGTGACVKNPHGKQKIPAAAKLQAYPVVEKHSLIWVWMGEQAAADPSVIPDFSMLDPDSGFQVSRRDWLHMDASYDLVVDNLMDLSHTAFLHDGILGSKYTIKADTSLEQTGETVKVTRLMPNVPVPGFFDLMFNRDGGIVDYWTEIRWNLPGCLMNNTGVTLPGAPRSEGTGVYGMHFLTPETDVSCWYHFAAVRQNPRTWGEPIDTEIKEKISDLRRYAFEEQDQWIIKAQQQTILRAKGNLQPVSLETDIGIERYKRILKAALVAERSGSTMAA
